In patent publication US20040022772A1 (University of Texas, published 2004):

Target: T1, p185 BCR-ABL (human, UniProt P00519 27-1130)
T1 construct: Endogenous protein of the SUP-B15 ALL cell line; also called Bcr-Abl oncoprotein (SUP-B15 cells)
Assay: co-precipitation of Bcr-Abl with Bcr by anti-BCR (1256-1271), immunokinase assay, SUP-B15 cells
Procedure: The effects of the sense and antisense 3′ BCR oligonucleotides were tested on BCR expression in SUP-Bi5 cells, a cell line derived from a Ph¹-positive acute lymphocytic leukemia patient that expresses p185 BCR—ABL.
In this study, equal amounts of the sense and the antisense oligonucleotide treated B15 cells were analyzed.

- binding result: binds
B1: p160 BCR (enzyme, human, UniProt P11274 1-1271, looked up)
chain: MVDPVGFAEAWKAQFPDSEPPRMELRSVGDIEQELERCKASIRRLEQEVNQERFRMIYLQTLLAKEKKSYDRQRWGFRRAAQAPDGASEPRASASRPQPAPADGADPPPAEEPEARPDGEGSPGKARPGTARRPGAAASGERDDRGPPASVAALRSNFERIRKGHGQPGADAEKPFYVNVEFHHERGLVKVNDKEVSDRISSLGSQAMQMERKKSQHGAGSSVGDASRPPYRGRSSESSCGVDGDYEDAELNPRFLKDNLIDANGGSRPPWPPLEYQPYQSIYVGGMMEGEGKGPLLRSQSTSEQEKRLTWPRRSYSPRSFEDCGGGYTPDCSSNENLTSSEEDFSSGQSSRVSPSPTTYRMFRDKSRSPSQNSQQSFDSSSPPTPQCHKRHRHCPVVVSEATIVGVRKTGQIWPNDGEGAFHGDADGSFGTPPGYGCAADRAEEQRRHQDGLPYIDDSPSSSPHLSSKGRGSRDALVSGALESTKASELDLEKGLEMRKWVLSGILASEETYLSHLEALLLPMKPLKAAATTSQPVLTSQQIETIFFKVPELYEIHKEFYDGLFPRVQQWSHQQRVGDLFQKLASQLGVYRAFVDNYGVAMEMAEKCCQANAQFAEISENLRARSNKDAKDPTTKNSLETLLYKPVDRVTRSTLVLHDLLKHTPASHPDHPLLQDALRISQNFLSSINEEITPRRQSMTVKKGEHRQLLKDSFMVELVEGARKLRHVFLFTDLLLCTKLKKQSGGKTQQYDCKWYIPLTDLSFQMVDELEAVPNIPLVPDEELDALKIKISQIKNDIQREKRANKGSKATERLKKKLSEQESLLLLMSPSMAFRVHSRNGKSYTFLISSDYERAEWRENIREQQKKCFRSFSLTSVELQMLTNSCVKLQTVHSIPLTINKEDDESPGLYGFLNVIVHSATGFKQSSNLYCTLEVDSFGYFVNKAKTRVYRDTAEPNWNEEFEIELEGSQTLRILCYEKCYNKTKIPKEDGESTDRLMGKGQVQLDPQALQDRDWQRTVIAMNGIEVKLSVKFNSREFSLKRMPSRKQTGVFGVKIAVVTKRERSKVPYIVRQCVEEIERRGMEEVGIYRVSGVATDIQALKAAFDVNNKDVSVMMSEMDVNAIAGTLKLYFRELPEPLFTDEFYPNFAEGIALSDPVAKESCMLNLLLSLPEANLLTFLFLLDHLKRVAEKEAVNKMSLHNLATVFGPTLLRPSEKESKLPANPSQPITMTDSWSLEVMSQVQVLLYFLQLEAIPAPDSKRQSILFSTEV
notes: also called normal Bcr protein; wild-type Bcr
